Measurements reported in US20250339531A1 (FRED HUTCHINSON CANCER CENTER, published 2025).

Key:
Assay in all cases: anti-FLAG co-IP LC-MS, exp 3, +IFNg +Dox
[1] = molecular target: T1, DNA-dependent protein kinase catalytic subunit (Homo sapiens, UniProt P78527 1-4128)
T1 construct: also called PRKDC

[2] = molecular target: T2, Immunoglobulin kappa variable 2-40 (Homo sapiens)
T2 construct: also called IGKV2-40

[3] = molecular target: ATP-dependent RNA helicase DDX3X (Homo sapiens, UniProt O00571 2-662)
[4] = molecular target: T3, Cyclin-dependent kinase 4 (Homo sapiens, UniProt P11802 2-303)
T3 construct: also called CDK4

[5] = molecular target: T4, cDNA FLJ56329, highly similar to Myosin light polypeptide 6 (Homo sapiens)
T4 construct: also called MYL6

[6] = molecular target: T5, Heterogeneous nuclear ribonucleoprotein U (Homo sapiens, UniProt Q00839 2-825)
T5 construct: also called HNRNPU; HNRPU

[7] = molecular target: T6, Heterogeneous nuclear ribonucleoprotein M (Homo sapiens, UniProt P52272 2-730)
T6 construct: also called HNRNPM
T6 sequence (looked up): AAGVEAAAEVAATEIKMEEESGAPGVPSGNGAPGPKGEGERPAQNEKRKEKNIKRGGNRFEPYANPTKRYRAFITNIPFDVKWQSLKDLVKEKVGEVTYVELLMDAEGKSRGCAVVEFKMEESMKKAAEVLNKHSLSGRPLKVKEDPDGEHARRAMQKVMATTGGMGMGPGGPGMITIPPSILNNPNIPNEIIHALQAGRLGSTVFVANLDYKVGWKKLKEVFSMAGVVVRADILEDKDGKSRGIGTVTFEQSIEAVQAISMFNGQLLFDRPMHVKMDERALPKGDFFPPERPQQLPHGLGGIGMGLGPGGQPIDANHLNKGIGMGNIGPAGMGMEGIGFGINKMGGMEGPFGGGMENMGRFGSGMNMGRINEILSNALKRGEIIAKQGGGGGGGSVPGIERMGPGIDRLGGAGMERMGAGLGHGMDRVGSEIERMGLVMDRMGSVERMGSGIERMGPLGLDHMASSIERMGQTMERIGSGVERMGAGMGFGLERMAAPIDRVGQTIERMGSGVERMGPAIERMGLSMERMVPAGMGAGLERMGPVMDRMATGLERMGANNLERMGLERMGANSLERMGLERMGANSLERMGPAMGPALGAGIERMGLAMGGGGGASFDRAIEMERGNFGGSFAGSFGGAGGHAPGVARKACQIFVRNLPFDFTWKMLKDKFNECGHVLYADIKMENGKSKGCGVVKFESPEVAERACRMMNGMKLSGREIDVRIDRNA

[8] = molecular target: T7, Uncharacterized protein (Fragment) (Homo sapiens)
T7 construct: also called NA (Homology to TAP2)

[9] = molecular target: T8, Nuclease-sensitive element-binding protein 1 (Fragment) (Homo sapiens, UniProt P67809 2-324)
T8 construct: also called YBX1

Nucleolin = molecular target: T9, Nucleolin (Homo sapiens, UniProt P19338 2-710)
T9 construct: also called NCL

[10] = molecular target: T10, Signal transducer and activator of transcription 1-alpha/beta (Homo sapiens, UniProt P42224 2-750)
T10 construct: also called STAT1
T10 sequence (looked up): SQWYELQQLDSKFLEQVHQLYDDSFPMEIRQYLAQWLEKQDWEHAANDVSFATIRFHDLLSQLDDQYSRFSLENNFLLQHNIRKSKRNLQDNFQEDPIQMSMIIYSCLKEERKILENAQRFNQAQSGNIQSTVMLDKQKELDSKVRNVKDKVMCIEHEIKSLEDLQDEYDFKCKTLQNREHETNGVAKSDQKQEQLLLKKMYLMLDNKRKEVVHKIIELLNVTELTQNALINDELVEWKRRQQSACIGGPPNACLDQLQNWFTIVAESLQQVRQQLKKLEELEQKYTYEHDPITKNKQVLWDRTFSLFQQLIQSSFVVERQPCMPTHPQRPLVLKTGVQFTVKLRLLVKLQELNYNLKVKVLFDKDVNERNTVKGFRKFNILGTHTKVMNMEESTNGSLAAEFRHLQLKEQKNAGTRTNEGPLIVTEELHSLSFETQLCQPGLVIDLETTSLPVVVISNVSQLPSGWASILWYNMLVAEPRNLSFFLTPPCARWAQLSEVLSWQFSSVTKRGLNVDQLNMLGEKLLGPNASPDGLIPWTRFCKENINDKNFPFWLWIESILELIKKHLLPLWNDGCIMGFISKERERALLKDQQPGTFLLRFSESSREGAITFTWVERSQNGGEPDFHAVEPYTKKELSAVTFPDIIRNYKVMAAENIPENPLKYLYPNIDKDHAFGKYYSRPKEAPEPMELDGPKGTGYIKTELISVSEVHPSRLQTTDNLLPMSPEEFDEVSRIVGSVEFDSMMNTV

[11] = molecular target: T11, Proteasome subunit alpha type (Homo sapiens)
T11 construct: also called PSMA6

T9 sequence (P19338 2-710 limits assumed): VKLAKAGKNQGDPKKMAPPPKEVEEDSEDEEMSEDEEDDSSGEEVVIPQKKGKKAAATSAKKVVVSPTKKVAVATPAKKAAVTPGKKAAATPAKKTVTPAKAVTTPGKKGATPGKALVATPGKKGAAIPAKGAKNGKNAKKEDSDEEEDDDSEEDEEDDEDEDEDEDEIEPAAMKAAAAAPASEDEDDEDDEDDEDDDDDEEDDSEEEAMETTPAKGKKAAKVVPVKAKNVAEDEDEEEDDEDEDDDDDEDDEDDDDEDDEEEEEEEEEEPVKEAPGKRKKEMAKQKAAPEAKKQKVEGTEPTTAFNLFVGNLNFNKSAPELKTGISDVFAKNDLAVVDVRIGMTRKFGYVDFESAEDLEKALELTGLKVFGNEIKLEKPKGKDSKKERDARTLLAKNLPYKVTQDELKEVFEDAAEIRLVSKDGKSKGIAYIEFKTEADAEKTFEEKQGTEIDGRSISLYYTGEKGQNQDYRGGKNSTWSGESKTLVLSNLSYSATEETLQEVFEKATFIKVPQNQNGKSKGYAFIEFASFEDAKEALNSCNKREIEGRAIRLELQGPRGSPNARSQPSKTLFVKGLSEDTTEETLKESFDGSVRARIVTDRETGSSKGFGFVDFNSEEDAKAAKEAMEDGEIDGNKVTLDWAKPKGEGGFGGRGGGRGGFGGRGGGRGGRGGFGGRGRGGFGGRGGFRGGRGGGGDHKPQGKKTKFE
ATP-dependent RNA helicase DDX3X, sequence (O00571 2-662 limits assumed): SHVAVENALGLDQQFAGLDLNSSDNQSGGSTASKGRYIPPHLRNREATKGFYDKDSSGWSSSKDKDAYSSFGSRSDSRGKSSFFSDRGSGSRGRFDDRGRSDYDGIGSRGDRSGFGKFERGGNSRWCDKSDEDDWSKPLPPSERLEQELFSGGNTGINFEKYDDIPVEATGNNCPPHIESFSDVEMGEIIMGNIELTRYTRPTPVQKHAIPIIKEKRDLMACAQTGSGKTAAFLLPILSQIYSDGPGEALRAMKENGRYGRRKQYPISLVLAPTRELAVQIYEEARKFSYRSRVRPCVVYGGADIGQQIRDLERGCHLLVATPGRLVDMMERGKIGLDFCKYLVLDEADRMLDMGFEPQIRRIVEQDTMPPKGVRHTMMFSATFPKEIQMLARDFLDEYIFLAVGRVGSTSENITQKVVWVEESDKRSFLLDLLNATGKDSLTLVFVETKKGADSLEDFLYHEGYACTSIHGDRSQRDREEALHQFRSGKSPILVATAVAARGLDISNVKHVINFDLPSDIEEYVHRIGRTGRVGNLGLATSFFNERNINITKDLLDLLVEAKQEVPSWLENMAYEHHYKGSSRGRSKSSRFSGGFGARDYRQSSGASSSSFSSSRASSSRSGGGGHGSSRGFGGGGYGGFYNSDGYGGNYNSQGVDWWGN
T5 sequence (Q00839 2-825 limits assumed): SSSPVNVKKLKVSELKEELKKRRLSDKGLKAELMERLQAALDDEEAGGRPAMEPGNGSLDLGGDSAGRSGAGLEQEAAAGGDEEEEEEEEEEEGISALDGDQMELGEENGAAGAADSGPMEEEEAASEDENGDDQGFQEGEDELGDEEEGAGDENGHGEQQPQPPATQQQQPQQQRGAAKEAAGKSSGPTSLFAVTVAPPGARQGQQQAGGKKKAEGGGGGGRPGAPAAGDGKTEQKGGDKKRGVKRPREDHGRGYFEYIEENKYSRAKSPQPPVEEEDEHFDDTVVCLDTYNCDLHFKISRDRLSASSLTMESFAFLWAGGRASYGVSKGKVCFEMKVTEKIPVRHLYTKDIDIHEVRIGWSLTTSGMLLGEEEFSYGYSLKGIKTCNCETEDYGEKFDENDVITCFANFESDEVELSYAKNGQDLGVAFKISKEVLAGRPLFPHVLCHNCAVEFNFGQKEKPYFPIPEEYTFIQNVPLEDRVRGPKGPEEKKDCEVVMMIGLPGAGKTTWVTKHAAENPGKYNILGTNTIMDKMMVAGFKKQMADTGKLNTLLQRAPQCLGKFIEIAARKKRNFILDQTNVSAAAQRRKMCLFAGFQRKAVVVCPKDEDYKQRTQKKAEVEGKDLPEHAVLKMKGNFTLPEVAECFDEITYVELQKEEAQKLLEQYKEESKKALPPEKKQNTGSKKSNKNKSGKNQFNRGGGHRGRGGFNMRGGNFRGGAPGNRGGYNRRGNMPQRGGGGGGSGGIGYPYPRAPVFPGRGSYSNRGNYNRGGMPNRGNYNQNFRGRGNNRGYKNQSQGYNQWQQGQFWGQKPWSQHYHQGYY
T8 sequence (P67809 2-324 limits assumed): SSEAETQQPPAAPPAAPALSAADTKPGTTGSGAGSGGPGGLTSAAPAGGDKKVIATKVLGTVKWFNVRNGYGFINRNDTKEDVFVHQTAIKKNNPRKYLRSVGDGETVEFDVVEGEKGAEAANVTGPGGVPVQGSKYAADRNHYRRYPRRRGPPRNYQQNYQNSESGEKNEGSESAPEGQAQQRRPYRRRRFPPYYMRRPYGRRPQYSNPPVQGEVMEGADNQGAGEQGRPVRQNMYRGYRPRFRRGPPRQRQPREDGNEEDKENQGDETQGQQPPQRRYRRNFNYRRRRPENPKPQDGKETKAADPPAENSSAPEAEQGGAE
T2 sequence (A0A087WW87 20-121): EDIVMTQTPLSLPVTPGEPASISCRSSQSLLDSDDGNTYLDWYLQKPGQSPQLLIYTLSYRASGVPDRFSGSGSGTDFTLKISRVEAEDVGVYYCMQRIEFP
T3 sequence (P11802 2-303 limits assumed): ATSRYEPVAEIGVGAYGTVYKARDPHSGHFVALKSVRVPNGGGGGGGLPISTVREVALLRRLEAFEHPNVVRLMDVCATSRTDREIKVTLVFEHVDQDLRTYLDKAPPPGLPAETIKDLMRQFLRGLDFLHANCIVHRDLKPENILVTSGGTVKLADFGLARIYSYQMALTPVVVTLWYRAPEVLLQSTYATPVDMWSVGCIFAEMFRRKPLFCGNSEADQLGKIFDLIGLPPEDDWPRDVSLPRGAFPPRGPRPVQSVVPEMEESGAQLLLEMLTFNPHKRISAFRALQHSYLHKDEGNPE

B1: i3XFLAG-NLS-CTDaa154-424 (other)
chain: MDYKDHDGDYKDHDIDYKDDDDKPPKRMRREPKKKRKVGRAPAQAGGLCSAAPGGGHPAPSWVAFAHTGAWGTGLPAPHVPCAPGALPQGAFVSQAARAAPALQPSQAAPAEGISQPAPARGDFAYAAPAPPDGALSHPQAPRWPPHPGKSREDRDPQRDGLPGPCAVAQPGPAQAGPQGQGVLAPPTSQGSPWWGWGRGPQVAGAAWEPQAGAAPPPQPAPPDASASARQGQMQGIPAPSQALQEPAPWSALPCGLLLDELLASPEFLQQAQPLLETEAPGELEASEEAASLEAPLSEEEYRALLEEL
notes: Doxycycline-induced in MB135 cells for co-IP; also called longCTD; iDUX4-CTD
B1 showed a PSMs [1] of 18 PSMs, a PSMs [2] of 2 PSMs and a PSMs [3] of 37 PSMs. It also gave a PSMs [4] of 1 PSMs, a PSMs [5] of 4 PSMs and a PSMs [6] of 9 PSMs. The PSMs [7] was 21 PSMs, the PSMs [8] was 1 PSMs and the PSMs [9] was 7 PSMs. For the same binder, the PSMs (Nucleolin) was 4 PSMs, the PSMs [10] was 3 PSMs and the PSMs [11] was 1 PSMs.
